Assay results from the supplement of paper PMC7877785.
± gives the uncertainty stated by the source.

Assay: self-splicing fitness, log relative to wild type (ln ratio); higher = more splicing; Tetrahymena group I intron in knt gene, E. coli kanamycin selection, DiMSum; sequences stand for … in CUCUCU…GGAGGGAAAAGUUAUCAGGCAUGCACCUGGUAGCUAGUCUUUAAACCAAUAGAUUGCAUCGGUUUAAAAGGCAAGACCGUCAAAUUGCGGGAAAGGGGUCAACAGCCGUUCAGUACCAAGUCUCAGGGGAAACUUUGAGAUGGCCUUGCAAAGGGUAUGGUAAUAAGCUGACGGACAUGGUCCUAACCACGCAGCCAAGUCCUAAGUCAACAGAUCUUCUGUUGAUAUGGAUGCAGUUCACAGACUAAAUGUCGGUCGGGGAAGAUGUAUUCUUCUCAUAAGAUAUAGUCGGACCUCUCCUUAAUGGGAGCUAGCGGAUGAAGUGAUGCAACACUGGAGCCGCUGGGAACUAAUUUGUAUGCGAAAGUAUAUUGAUUAGUUUUGGAGUACUCGUGGUCG
How it was run: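 Six replicate transformations of E. coli BL21(DE3) with a pET-22b(+) library were grown overnight at 37°C or 30°C. The library randomised all eight P1ex-region intron nucleotides, the intron lying in the knt kanamycin-resistance gene, and plates were LB agar with or without 25 μg/mL kanamycin plus 100 μg/mL carbenicillin, 50 μM IPTG and 0.2% rhamnose. Pooled colonies were amplicon-sequenced on an Illumina HiSeq 2500, and fitness is the DiMSum error-weighted combination of wild-type-normalised replicate fold changes, kanamycin versus none.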

Row | Sequence | self-splicing fitness (ln) (30 °C) | self-splicing fitness (ln) (37 °C)
1 | GUAAAGCAAUAUUACGGUCU | -0.245 ± 0.071 | 0.0323 ± 0.092
2 | GAUAAGCAAUAUUACGUGGC | -3.32 ± 0.21 | -2.24 ± 0.27
3 | ACAUAGCAAUAUUACGGUUA | -1.05 ± 0.098 | -0.751 ± 0.095
4 | CGUGAGCAAUAUUACGGCAG | -0.858 ± 0.11 | -0.441 ± 0.14
5 | ACAUAGCAAUAUUACGUCAC | -3.32 ± 0.18 | -2.93 ± 0.28
6 | AAGGAGCAAUAUUACGGCGU | -1.33 ± 0.13 | -0.923 ± 0.12
7 | GCACAGCAAUAUUACGGCCC | -0.235 ± 0.1 | -0.615 ± 0.13
8 | GACUAGCAAUAUUACGCGAG | -2.49 ± 0.21 | -1.28 ± 0.15
9 | CGGGAGCAAUAUUACGCUUC | – | -2.21 ± 0.31
10 | AUCGAGCAAUAUUACGCCUU | -1.74 ± 0.16 | -1.72 ± 0.21
11 | AAUAAGCAAUAUUACGUGAG | -0.815 ± 0.065 | -0.198 ± 0.093
12 | GCCUAGCAAUAUUACGAUUC | -0.921 ± 0.076 | -0.684 ± 0.096
13 | CUCCAGCAAUAUUACGUGUA | -2.95 ± 0.14 | -2.82 ± 0.19
14 | CUUAAGCAAUAUUACGAAUU | -3.26 ± 0.22 | -0.957 ± 0.17
15 | CAGGAGCAAUAUUACGCUGU | -3.13 ± 0.43 | -2.65 ± 0.44
16 | CUAGAGCAAUAUUACGUCGU | -3.73 ± 0.42 | –
17 | UCGGAGCAAUAUUACGCGCG | -2.02 ± 0.18 | -0.752 ± 0.2
18 | CUUAAGCAAUAUUACGAUAA | – | -3.18 ± 0.35
19 | CUGUAGCAAUAUUACGCAGU | -2.29 ± 0.15 | -3.65 ± 0.33
20 | CUGCAGCAAUAUUACGUACG | -0.548 ± 0.082 | 0.0422 ± 0.11
21 | AUAAAGCAAUAUUACGGGGU | -2.63 ± 0.16 | -1.99 ± 0.14
22 | GAGCAGCAAUAUUACGGACG | -2.19 ± 0.42 | -1.72 ± 0.33
23 | GGACAGCAAUAUUACGUGCG | -0.326 ± 0.064 | 0.365 ± 0.087
24 | UAGUAGCAAUAUUACGUUUA | -1.48 ± 0.16 | -1.22 ± 0.14
25 | CCCUAGCAAUAUUACGGAAA | -3.33 ± 0.27 | -1.5 ± 0.24

Row | Sequence | self-splicing fitness (ln) (30 °C) | self-splicing fitness (ln) (37 °C)
26 | CAGCAGCAAUAUUACGCUUA | -1.51 ± 0.13 | -0.645 ± 0.12
27 | CUGAAGCAAUAUUACGAGCC | -3.13 ± 0.31 | –
28 | GAAUAGCAAUAUUACGAGUG | -2.01 ± 0.076 | -2.34 ± 0.13
29 | UUCUAGCAAUAUUACGCUUU | -3.89 ± 0.26 | -1.82 ± 0.22
30 | GAAGAGCAAUAUUACGGUUC | -3.53 ± 0.29 | -1.46 ± 0.22
31 | GAGCAGCAAUAUUACGAUUU | -0.179 ± 0.068 | -0.211 ± 0.094
32 | AUUGAGCAAUAUUACGAGGU | -3.14 ± 0.36 | -2.02 ± 0.36
33 | GGCGAGCAAUAUUACGCAUA | -1.15 ± 0.17 | -0.988 ± 0.16
34 | AGCAAGCAAUAUUACGACGU | -0.267 ± 0.075 | 0.91 ± 0.093
35 | UCUAAGCAAUAUUACGCUUA | -2.29 ± 0.21 | -1.75 ± 0.29
36 | AUCCAGCAAUAUUACGAGAC | -2.51 ± 0.091 | -2.01 ± 0.11
37 | GAUCAGCAAUAUUACGGAGC | -1.86 ± 0.094 | -0.552 ± 0.099
38 | ACCGAGCAAUAUUACGGCAC | -2.07 ± 0.14 | -1.76 ± 0.27
39 | AUCGAGCAAUAUUACGGAUU | -3.48 ± 0.22 | -1.26 ± 0.17
40 | UUAAAGCAAUAUUACGGGUA | -0.431 ± 0.069 | 0.283 ± 0.08
41 | AUAUAGCAAUAUUACGCCCA | -1.31 ± 0.3 | -0.688 ± 0.3
42 | CGAUAGCAAUAUUACGGUCG | -4.36 ± 0.29 | -3.39 ± 0.35
43 | AGUCAGCAAUAUUACGGUAU | -0.592 ± 0.05 | -0.99 ± 0.063
44 | CCCCAGCAAUAUUACGGCGG | -3.53 ± 0.17 | -2.99 ± 0.24
45 | GACUAGCAAUAUUACGCACC | -0.905 ± 0.18 | 0.000851 ± 0.28
46 | GGACAGCAAUAUUACGGUCU | -3.84 ± 0.24 | -1.18 ± 0.2
47 | CUCUAGCAAUAUUACGGAAU | -3.43 ± 0.26 | -3.25 ± 0.3
48 | GUCAAGCAAUAUUACGCAAG | -3.29 ± 0.18 | -2.48 ± 0.18
49 | GAACAGCAAUAUUACGUGGU | -3.12 ± 0.11 | -1.89 ± 0.09
50 | GGGCAGCAAUAUUACGGAUG | -3.41 ± 0.26 | -2.81 ± 0.34

Row | Sequence | self-splicing fitness (ln) (30 °C) | self-splicing fitness (ln) (37 °C)
51 | AUUCAGCAAUAUUACGUGCC | -1.51 ± 0.1 | -0.682 ± 0.14
52 | ACACAGCAAUAUUACGACCG | -0.326 ± 0.077 | 0.342 ± 0.11
53 | UGUUAGCAAUAUUACGAGGA | – | -1.92 ± 0.21
54 | CCUGAGCAAUAUUACGAUCG | -3.71 ± 0.27 | -3.46 ± 0.3
55 | UGUUAGCAAUAUUACGUAGA | -2.29 ± 0.12 | -0.809 ± 0.14
56 | GAACAGCAAUAUUACGCUAA | -1.13 ± 0.062 | -0.958 ± 0.075
57 | UUCGAGCAAUAUUACGGGCC | -3.79 ± 0.32 | -2.21 ± 0.33
58 | GAAAAGCAAUAUUACGCGUG | -1.42 ± 0.065 | -0.104 ± 0.078
59 | GAGAAGCAAUAUUACGCGAA | -2 ± 0.11 | -1.93 ± 0.17
60 | CUAUAGCAAUAUUACGAGUG | -0.752 ± 0.071 | 0.361 ± 0.1
61 | GUACAGCAAUAUUACGGACA | -2.13 ± 0.12 | -1.13 ± 0.1
62 | UUUAAGCAAUAUUACGCGUC | -1.9 ± 0.18 | -1.77 ± 0.25
63 | GUACAGCAAUAUUACGAAAU | -2.34 ± 0.12 | -0.906 ± 0.11
64 | UUCAAGCAAUAUUACGUGUU | -3.23 ± 0.13 | -1.72 ± 0.11
65 | UUCGAGCAAUAUUACGAGAG | -3.55 ± 0.44 | -2.72 ± 0.48
66 | AGGCAGCAAUAUUACGCCAU | -2.27 ± 0.25 | -1.39 ± 0.3
67 | GUAGAGCAAUAUUACGACCU | -1.39 ± 0.15 | -0.95 ± 0.2
68 | CAGAAGCAAUAUUACGCUUA | -3.85 ± 0.32 | -1.9 ± 0.18
69 | UACUAGCAAUAUUACGCGAA | -1.97 ± 0.2 | -1.18 ± 0.14
70 | CGCUAGCAAUAUUACGAGAU | -3.86 ± 0.19 | -3.36 ± 0.23
71 | AUCGAGCAAUAUUACGCGGG | -2.23 ± 0.24 | -1.21 ± 0.29
72 | UCAGAGCAAUAUUACGCUUU | -2.7 ± 0.32 | -2.84 ± 0.48
73 | UUACAGCAAUAUUACGCACG | -1.13 ± 0.12 | 0.579 ± 0.13
74 | GCCCAGCAAUAUUACGUUCU | -1.95 ± 0.079 | -1.18 ± 0.091
75 | AGGGAGCAAUAUUACGUGAC | -2.06 ± 0.3 | -1.15 ± 0.39

Row | Sequence | self-splicing fitness (ln) (30 °C) | self-splicing fitness (ln) (37 °C)
76 | CUCGAGCAAUAUUACGUAGA | -3.34 ± 0.21 | -1.64 ± 0.14
77 | CACUAGCAAUAUUACGGCAU | -4.16 ± 0.19 | -1.55 ± 0.14
78 | CCGAAGCAAUAUUACGAGAG | -3.28 ± 0.22 | -1.53 ± 0.19
79 | CUAGAGCAAUAUUACGACGG | -0.119 ± 0.12 | 0.393 ± 0.17
80 | GAGUAGCAAUAUUACGUGGG | -3.53 ± 0.24 | -2.94 ± 0.23
81 | UUUAAGCAAUAUUACGGAAG | -2.97 ± 0.26 | -1.37 ± 0.3
82 | GCGGAGCAAUAUUACGGGUG | – | -1.36 ± 0.34
83 | GUUAAGCAAUAUUACGUCCU | -0.303 ± 0.081 | 0.0564 ± 0.083
84 | GUGCAGCAAUAUUACGGAUA | -1.76 ± 0.15 | -1.79 ± 0.19
85 | AACCAGCAAUAUUACGAUCA | -0.638 ± 0.1 | -0.0996 ± 0.11
86 | GAACAGCAAUAUUACGCGUG | -0.931 ± 0.053 | -0.34 ± 0.059
87 | CAAAAGCAAUAUUACGACGG | 0.122 ± 0.076 | -0.14 ± 0.09
88 | UGGUAGCAAUAUUACGAGCG | -0.4 ± 0.053 | -0.521 ± 0.081
89 | AAAUAGCAAUAUUACGGGGU | -3.27 ± 0.17 | -2.12 ± 0.19
90 | AAAAAGCAAUAUUACGGUAG | -3.38 ± 0.21 | -1.45 ± 0.15
91 | CGUGAGCAAUAUUACGCGUU | -3.11 ± 0.28 | -2.72 ± 0.2
92 | UCCGAGCAAUAUUACGACUU | -2.69 ± 0.33 | -2.98 ± 0.43
93 | AUCGAGCAAUAUUACGUGAC | -3.54 ± 0.26 | -2.91 ± 0.29
94 | AAGUAGCAAUAUUACGCCGG | -3.7 ± 0.3 | -1.59 ± 0.18
95 | CGGUAGCAAUAUUACGAGCU | -2.4 ± 0.15 | -1.89 ± 0.2
96 | UCGUAGCAAUAUUACGUUAU | -4.46 ± 0.42 | -2.64 ± 0.34
97 | GUGGAGCAAUAUUACGGAAC | – | -0.66 ± 0.45
